Assay results from patent US20230183713A1, “SITE-SPECIFIC RECOMBINASES FOR EFFICIENT AND SPECIFIC GENOME EDITING” (TECHNISCHE UNIVERSITÄt DRESDEN, published 2023).

Assays:
[1] = molecular target: T1, Cre recombinase monomer with Y324L mutation
T1 chain: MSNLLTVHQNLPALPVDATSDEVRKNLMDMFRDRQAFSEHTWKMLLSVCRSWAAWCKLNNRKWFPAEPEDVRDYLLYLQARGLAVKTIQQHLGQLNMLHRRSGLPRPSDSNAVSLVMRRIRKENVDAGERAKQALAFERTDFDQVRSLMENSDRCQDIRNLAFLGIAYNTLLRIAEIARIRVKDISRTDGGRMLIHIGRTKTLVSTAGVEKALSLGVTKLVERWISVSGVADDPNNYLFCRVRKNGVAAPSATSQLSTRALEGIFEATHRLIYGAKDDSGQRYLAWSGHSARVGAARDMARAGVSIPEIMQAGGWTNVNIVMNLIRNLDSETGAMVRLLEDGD

[2] = molecular target: T2, Cre recombinase monomer with Q311R mutation
T2 chain: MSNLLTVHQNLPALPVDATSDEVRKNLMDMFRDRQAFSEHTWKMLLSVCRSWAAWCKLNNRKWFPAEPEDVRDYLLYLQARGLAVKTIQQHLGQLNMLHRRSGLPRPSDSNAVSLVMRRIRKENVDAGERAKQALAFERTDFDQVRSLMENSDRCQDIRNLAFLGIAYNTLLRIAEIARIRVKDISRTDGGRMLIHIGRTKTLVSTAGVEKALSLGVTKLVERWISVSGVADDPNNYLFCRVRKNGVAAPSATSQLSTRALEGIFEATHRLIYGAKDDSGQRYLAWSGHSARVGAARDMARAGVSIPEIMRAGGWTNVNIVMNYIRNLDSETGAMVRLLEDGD

[3] = molecular target: T3, Cre recombinase monomer with Y324V mutation
T3 chain: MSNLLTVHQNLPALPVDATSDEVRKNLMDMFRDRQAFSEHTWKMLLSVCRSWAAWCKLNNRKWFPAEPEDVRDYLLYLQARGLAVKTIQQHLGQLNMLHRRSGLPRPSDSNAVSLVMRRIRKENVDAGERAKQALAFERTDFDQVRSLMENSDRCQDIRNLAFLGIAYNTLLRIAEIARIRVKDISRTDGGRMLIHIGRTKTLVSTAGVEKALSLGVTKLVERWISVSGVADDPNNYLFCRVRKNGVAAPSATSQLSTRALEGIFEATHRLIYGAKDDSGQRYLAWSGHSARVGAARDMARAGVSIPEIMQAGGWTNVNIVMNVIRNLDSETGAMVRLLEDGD

[4] = molecular target: T4, Cre recombinase monomer with Y324M mutation
T4 chain: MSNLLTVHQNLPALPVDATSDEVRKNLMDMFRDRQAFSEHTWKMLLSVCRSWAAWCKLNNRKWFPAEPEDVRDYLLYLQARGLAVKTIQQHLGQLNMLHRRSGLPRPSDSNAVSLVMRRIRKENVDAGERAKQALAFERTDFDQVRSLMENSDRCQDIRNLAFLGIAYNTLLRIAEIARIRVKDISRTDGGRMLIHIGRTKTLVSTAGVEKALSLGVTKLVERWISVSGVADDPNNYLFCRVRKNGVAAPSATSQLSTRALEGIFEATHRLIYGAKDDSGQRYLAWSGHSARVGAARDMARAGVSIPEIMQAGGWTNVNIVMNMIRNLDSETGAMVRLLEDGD

[5] = molecular target: T5, Cre recombinase monomer with W315T mutation
T5 chain: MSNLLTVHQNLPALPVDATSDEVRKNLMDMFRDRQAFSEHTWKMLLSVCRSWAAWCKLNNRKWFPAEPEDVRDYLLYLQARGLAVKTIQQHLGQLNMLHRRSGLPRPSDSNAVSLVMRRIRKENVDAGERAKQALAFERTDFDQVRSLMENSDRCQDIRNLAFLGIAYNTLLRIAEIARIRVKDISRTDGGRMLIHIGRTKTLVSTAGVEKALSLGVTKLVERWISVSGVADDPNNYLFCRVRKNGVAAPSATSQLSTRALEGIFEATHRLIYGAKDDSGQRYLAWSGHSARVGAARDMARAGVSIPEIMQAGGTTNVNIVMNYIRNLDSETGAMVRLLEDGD

[6] = molecular target: T6, Cre recombinase monomer with E176H mutation
T6 chain: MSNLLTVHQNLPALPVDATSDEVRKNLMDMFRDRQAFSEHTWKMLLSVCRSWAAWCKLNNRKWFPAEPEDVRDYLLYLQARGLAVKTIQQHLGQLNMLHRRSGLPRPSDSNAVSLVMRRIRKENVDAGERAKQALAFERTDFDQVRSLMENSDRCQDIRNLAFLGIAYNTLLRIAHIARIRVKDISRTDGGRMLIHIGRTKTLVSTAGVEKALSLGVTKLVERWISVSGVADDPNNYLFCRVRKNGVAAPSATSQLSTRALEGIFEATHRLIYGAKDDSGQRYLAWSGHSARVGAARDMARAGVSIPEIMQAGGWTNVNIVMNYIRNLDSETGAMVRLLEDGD

[7] = molecular target: T7, Cre recombinase monomer with E176M mutation
T7 chain: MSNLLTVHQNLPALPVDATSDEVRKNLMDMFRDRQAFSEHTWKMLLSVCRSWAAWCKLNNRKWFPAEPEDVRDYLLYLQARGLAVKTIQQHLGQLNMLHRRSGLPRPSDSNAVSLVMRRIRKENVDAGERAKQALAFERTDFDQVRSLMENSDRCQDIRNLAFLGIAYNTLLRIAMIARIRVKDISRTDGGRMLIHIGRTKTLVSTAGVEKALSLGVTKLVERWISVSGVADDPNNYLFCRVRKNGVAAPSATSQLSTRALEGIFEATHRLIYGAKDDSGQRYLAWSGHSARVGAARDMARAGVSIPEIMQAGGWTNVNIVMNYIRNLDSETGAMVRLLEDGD

B1: Cre recombinase monomer with K201P mutation (protein)
chain: MSNLLTVHQNLPALPVDATSDEVRKNLMDMFRDRQAFSEHTWKMLLSVCRSWAAWCKLNNRKWFPAEPEDVRDYLLYLQARGLAVKTIQQHLGQLNMLHRRSGLPRPSDSNAVSLVMRRIRKENVDAGERAKQALAFERTDFDQVRSLMENSDRCQDIRNLAFLGIAYNTLLRIAEIARIRVKDISRTDGGRMLIHIGRTPTLVSTAGVEKALSLGVTKLVERWISVSGVADDPNNYLFCRVRKNGVAAPSATSQLSTRALEGIFEATHRLIYGAKDDSGQRYLAWSGHSARVGAARDMARAGVSIPEIMQAGGWTNVNIVMNYIRNLDSETGAMVRLLEDGD
[1]
  Median dimer activity (recombination on loxP): 59%
[2]
  Median dimer activity (recombination on loxP): 95%

B2: Cre recombinase monomer with K201Y mutation (protein)
chain: MSNLLTVHQNLPALPVDATSDEVRKNLMDMFRDRQAFSEHTWKMLLSVCRSWAAWCKLNNRKWFPAEPEDVRDYLLYLQARGLAVKTIQQHLGQLNMLHRRSGLPRPSDSNAVSLVMRRIRKENVDAGERAKQALAFERTDFDQVRSLMENSDRCQDIRNLAFLGIAYNTLLRIAEIARIRVKDISRTDGGRMLIHIGRTYTLVSTAGVEKALSLGVTKLVERWISVSGVADDPNNYLFCRVRKNGVAAPSATSQLSTRALEGIFEATHRLIYGAKDDSGQRYLAWSGHSARVGAARDMARAGVSIPEIMQAGGWTNVNIVMNYIRNLDSETGAMVRLLEDGD
[3]
  Median dimer activity (recombination on loxP): 26%
[2]
  Median dimer activity (recombination on loxP): 90%

B3: Cre recombinase monomer with R292Y mutation (protein)
chain: MSNLLTVHQNLPALPVDATSDEVRKNLMDMFRDRQAFSEHTWKMLLSVCRSWAAWCKLNNRKWFPAEPEDVRDYLLYLQARGLAVKTIQQHLGQLNMLHRRSGLPRPSDSNAVSLVMRRIRKENVDAGERAKQALAFERTDFDQVRSLMENSDRCQDIRNLAFLGIAYNTLLRIAEIARIRVKDISRTDGGRMLIHIGRTKTLVSTAGVEKALSLGVTKLVERWISVSGVADDPNNYLFCRVRKNGVAAPSATSQLSTRALEGIFEATHRLIYGAKDDSGQRYLAWSGHSAYVGAARDMARAGVSIPEIMQAGGWTNVNIVMNYIRNLDSETGAMVRLLEDGD
[4]
  Median dimer activity (recombination on loxP): 90%
[2]
  Median dimer activity (recombination on loxP): 96%

B4: Cre recombinase monomer with W315G mutation (protein)
chain: MSNLLTVHQNLPALPVDATSDEVRKNLMDMFRDRQAFSEHTWKMLLSVCRSWAAWCKLNNRKWFPAEPEDVRDYLLYLQARGLAVKTIQQHLGQLNMLHRRSGLPRPSDSNAVSLVMRRIRKENVDAGERAKQALAFERTDFDQVRSLMENSDRCQDIRNLAFLGIAYNTLLRIAEIARIRVKDISRTDGGRMLIHIGRTKTLVSTAGVEKALSLGVTKLVERWISVSGVADDPNNYLFCRVRKNGVAAPSATSQLSTRALEGIFEATHRLIYGAKDDSGQRYLAWSGHSARVGAARDMARAGVSIPEIMQAGGGTNVNIVMNYIRNLDSETGAMVRLLEDGD
[4]
  Median dimer activity (recombination on loxP): 35%
[3]
  Median dimer activity (recombination on loxP): 37%

B5: Cre recombinase monomer with W315M mutation (protein)
chain: MSNLLTVHQNLPALPVDATSDEVRKNLMDMFRDRQAFSEHTWKMLLSVCRSWAAWCKLNNRKWFPAEPEDVRDYLLYLQARGLAVKTIQQHLGQLNMLHRRSGLPRPSDSNAVSLVMRRIRKENVDAGERAKQALAFERTDFDQVRSLMENSDRCQDIRNLAFLGIAYNTLLRIAEIARIRVKDISRTDGGRMLIHIGRTKTLVSTAGVEKALSLGVTKLVERWISVSGVADDPNNYLFCRVRKNGVAAPSATSQLSTRALEGIFEATHRLIYGAKDDSGQRYLAWSGHSARVGAARDMARAGVSIPEIMQAGGMTNVNIVMNYIRNLDSETGAMVRLLEDGD
[1]
  Median dimer activity (recombination on loxP): 71%

B6: Cre recombinase monomer with W315L mutation (protein)
chain: MSNLLTVHQNLPALPVDATSDEVRKNLMDMFRDRQAFSEHTWKMLLSVCRSWAAWCKLNNRKWFPAEPEDVRDYLLYLQARGLAVKTIQQHLGQLNMLHRRSGLPRPSDSNAVSLVMRRIRKENVDAGERAKQALAFERTDFDQVRSLMENSDRCQDIRNLAFLGIAYNTLLRIAEIARIRVKDISRTDGGRMLIHIGRTKTLVSTAGVEKALSLGVTKLVERWISVSGVADDPNNYLFCRVRKNGVAAPSATSQLSTRALEGIFEATHRLIYGAKDDSGQRYLAWSGHSARVGAARDMARAGVSIPEIMQAGGLTNVNIVMNYIRNLDSETGAMVRLLEDGD
[5]
  Median dimer activity (recombination on loxP): 50%

B7: Cre recombinase monomer with R173C mutation (protein)
chain: MSNLLTVHQNLPALPVDATSDEVRKNLMDMFRDRQAFSEHTWKMLLSVCRSWAAWCKLNNRKWFPAEPEDVRDYLLYLQARGLAVKTIQQHLGQLNMLHRRSGLPRPSDSNAVSLVMRRIRKENVDAGERAKQALAFERTDFDQVRSLMENSDRCQDIRNLAFLGIAYNTLLCIAEIARIRVKDISRTDGGRMLIHIGRTKTLVSTAGVEKALSLGVTKLVERWISVSGVADDPNNYLFCRVRKNGVAAPSATSQLSTRALEGIFEATHRLIYGAKDDSGQRYLAWSGHSARVGAARDMARAGVSIPEIMQAGGWTNVNIVMNYIRNLDSETGAMVRLLEDGD
[6]
  Median dimer activity (recombination on loxP): 65%
[7]
  Median dimer activity (recombination on loxP): 27%
[2]
  Median dimer activity (recombination on loxP): 91%

B8: Cre recombinase monomer with R173Q mutation (protein)
chain: MSNLLTVHQNLPALPVDATSDEVRKNLMDMFRDRQAFSEHTWKMLLSVCRSWAAWCKLNNRKWFPAEPEDVRDYLLYLQARGLAVKTIQQHLGQLNMLHRRSGLPRPSDSNAVSLVMRRIRKENVDAGERAKQALAFERTDFDQVRSLMENSDRCQDIRNLAFLGIAYNTLLQIAEIARIRVKDISRTDGGRMLIHIGRTKTLVSTAGVEKALSLGVTKLVERWISVSGVADDPNNYLFCRVRKNGVAAPSATSQLSTRALEGIFEATHRLIYGAKDDSGQRYLAWSGHSARVGAARDMARAGVSIPEIMQAGGWTNVNIVMNYIRNLDSETGAMVRLLEDGD
[7]
  Median dimer activity (recombination on loxP): 32%
[2]
  Median dimer activity (recombination on loxP): 92%
